According to paper PMC5766252, “Indole-3-acetaldehyde dehydrogenase-dependent auxin synthesis contributes to virulence of Pseudomonas syringae strain DC3000” (PLoS Pathogens, 2018):

Assays:
AldA = target: T1, AldA (Pseudomonas syringae group genomosp. 3, UniProt Q88BC5); assay: X-ray crystal structure of complex; type: binding; conditions: pH 8.5
T1 construct: gene PSPTO_0092; full-length, N-terminal hexahistidine tag (pET28a, NdeI/XhoI), E. coli BL21(DE3); tetramer; catalytic Cys302

O=CCc1c[nH]c2ccccc12 = assay: purified protein; conditions: 1.0 mM NAD+, 100 mM Tris-HCl pH 8.0, 100 mM KCl, 25 °C, IAAld varied 0.05-2.5 mM
[1] = tested on: NC(=O)c1ccc[n+]([C@@H]2O[C@H](COP(=O)(O)OP(=O)(O)OC[C@H]3O[C@@H](n4cnc5c(N)ncnc54)[C@H](O)[C@@H]3O)[C@@H](O)[C@H]2O)c1; assay: purified protein; conditions: 1.0 mM IAAld, 100 mM Tris-HCl pH 8.0, 100 mM KCl, 25 °C, NAD+ varied, varied: cofactor
[2] = tested on: NC(=O)c1ccc[n+]([C@@H]2O[C@H](COP(=O)(O)OP(=O)(O)OC[C@H]3O[C@@H](n4cnc5c(N)ncnc54)[C@H](OP(=O)(O)O)[C@@H]3O)[C@@H](O)[C@H]2O)c1; assay: purified protein; conditions: 1.0 mM IAAld, 100 mM Tris-HCl pH 8.0, 100 mM KCl, 25 °C, NADP+ varied, varied: cofactor
[3] = target: Aldehyde dehydrogenase AldB (PSPTO_2673) (Pseudomonas syringae pv. tomato strain DC3000); assay: SEC; His-tagged protein on a Superdex-200 26/60 column in 25 mM Hepes (pH 7.5), 100 mM NaCl; column calibrated with molecular weight standards
[4] = target: Aldehyde dehydrogenase AldC (PSPTO_3644) (Pseudomonas syringae pv. tomato strain DC3000); assay: as above
[5] = target: the molecule itself; assay: as above

| Molecule | Km (O=CCc1c[nH]c2ccccc12) | kcat (O=CCc1c[nH]c2ccccc12) [s⁻¹] | kcat/Km (O=CCc1c[nH]c2ccccc12) [M⁻¹ s⁻¹] | Km [1] [µM] | kcat [1] [s⁻¹] | kcat/Km [1] [M⁻¹ s⁻¹] | also measured |
| --- | --- | --- | --- | --- | --- | --- | --- |
| O=C(O)Cc1c[nH]c2ccccc12 [IAA] |  |  |  |  |  |  | X-ray crystal structure of complex (AldA; 5 mM NAD+ and 5 mM IAA, dead-end ternary complex, 1.93 Å, substrate site near Cys302): AldA (5IUU); AldA•NAD^+ (5IUV); and AldA•NAD^+•IAA (5IUW) |
| NC(=O)c1ccc[n+]([C@@H]2O[C@H](COP(=O)(O)OP(=O)(O)OC[C@H]3O[C@@H](n4cnc5c(N)ncnc54)[C@H](O)[C@@H]3O)[C@@H](O)[C@H]2O)c1 [NAD^+] |  |  |  |  |  |  | X-ray crystal structure of complex (AldA; 5 mM NAD+, cofactor binding site, also in the ternary complex 5IUW): AldA (5IUU); AldA•NAD^+ (5IUV); and AldA•NAD^+•IAA (5IUW) |
| AldA (Pseudomonas syringae pv. tomato str. DC3000) | 119 ± 37 µM | 3.9 ± 0.35 | 32800 | 42 ± 8 | 3.23 ± 0.15 | 77400 | Km [2]: 1,960 ± 182 µM; kcat [2]: 0.5 ± 0.0167 s⁻¹; kcat/Km [2]: 252 M⁻¹ s⁻¹ |
| AldB (Pseudomonas syringae pv. tomato str. DC3000) | 595 ± 39 µM | 0.145 ± 0.00333 | 244 | 33.4 ± 9.2 | 0.035 ± 0.00167 | 1040 |  |
| AldC (Pseudomonas syringae pv. tomato str. DC3000) | 1,280 ± 161 µM | 0.06 ± 0.00333 | 46 | 445 ± 99 | 0.00667 ± 0.000167 | 14 |  |
| Aldehyde dehydrogenase AldB (PSPTO_2673) (enzyme) |  |  |  |  |  |  | stoichiometry N [3]: 4 |
| Aldehyde dehydrogenase AldC (PSPTO_3644) (enzyme) |  |  |  |  |  |  | stoichiometry N [4]: 2 |
| Indole-3-acetaldehyde dehydrogenase AldA (PSPTO_0092) (enzyme, AldA (PSPTO_0092), aldehyde dehydrogenase of Pseudomonas syringae pv. tomato strain DC3000; estimated Mr 52.7 kDa without the tag; The full-length CDS is stated for the pET21a-0092 construct; pET28a-AldA was made with the same NdeI and XhoI sites; also called IAAld dehydrogenase; source: E. coli BL21 (DE3), pET28a-AldA, purified (Ni-NTA, Superdex-200 size exclusion); not shown: His6, N-terminal, …) MTTLTRADWEQRAQNLKIEGRAFIQGEYTAAASGETFDCISPVDGRLLAKVASCDAADAQRAVESARSAFDSGAWSRLAPAKRKATMIRFAGLLEQNAEELALLETLDMGKPISDSLGVDIPGGARALSWSGEAIDKLYDEVAATPHDQLGLVTREPVGVVAAIVPWNFPLMMACWKLGPALSTGNSVVLKPSEKSPLTAIRIAQLAIEAGIPAGVLNVLPGYGHTVGKALALHMDVDTVVFTGSTKIAKQLMIYAGESNMKRVWLEAGGKSPNIVFADAPDLQAAADSAASAIAFNQGEVCTAGSRLLVERSIKDRFLPMVIEALGTWKPGNPLDPATNVGALVDTQQMNTVLSYIAAGHTDGARLVAGGKQILQETGGTYVEPTIFDGVNNAMRIAQEEIFGPVLSVLTFDTAEEAIQIANDTPYGLAAAVWTANLSKAHLTARALRAGSVWVNQYDGGDMTAPFGGFKQSGNGRDKSLHAFDKYTELKSTWIKL |  |  |  |  |  |  | stoichiometry N [5]: 4 |
